Test results taken from patent US20260365743 (published 2026).

T1: hNPR3 (human, UniProt P17342)
T1 chain: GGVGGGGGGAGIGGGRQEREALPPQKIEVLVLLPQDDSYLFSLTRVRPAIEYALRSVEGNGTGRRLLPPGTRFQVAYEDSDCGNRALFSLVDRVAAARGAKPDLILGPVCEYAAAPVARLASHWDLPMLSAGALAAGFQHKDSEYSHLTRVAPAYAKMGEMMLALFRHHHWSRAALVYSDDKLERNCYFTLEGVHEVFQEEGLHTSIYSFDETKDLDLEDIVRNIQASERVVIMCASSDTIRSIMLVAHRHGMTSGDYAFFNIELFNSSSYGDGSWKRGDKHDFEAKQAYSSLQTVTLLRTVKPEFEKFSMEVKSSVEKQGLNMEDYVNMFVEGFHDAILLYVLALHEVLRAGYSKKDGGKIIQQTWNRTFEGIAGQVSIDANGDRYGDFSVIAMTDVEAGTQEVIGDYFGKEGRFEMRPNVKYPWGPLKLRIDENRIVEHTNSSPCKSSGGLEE

T2: hNPR2 (human, UniProt P20594)
T2 chain: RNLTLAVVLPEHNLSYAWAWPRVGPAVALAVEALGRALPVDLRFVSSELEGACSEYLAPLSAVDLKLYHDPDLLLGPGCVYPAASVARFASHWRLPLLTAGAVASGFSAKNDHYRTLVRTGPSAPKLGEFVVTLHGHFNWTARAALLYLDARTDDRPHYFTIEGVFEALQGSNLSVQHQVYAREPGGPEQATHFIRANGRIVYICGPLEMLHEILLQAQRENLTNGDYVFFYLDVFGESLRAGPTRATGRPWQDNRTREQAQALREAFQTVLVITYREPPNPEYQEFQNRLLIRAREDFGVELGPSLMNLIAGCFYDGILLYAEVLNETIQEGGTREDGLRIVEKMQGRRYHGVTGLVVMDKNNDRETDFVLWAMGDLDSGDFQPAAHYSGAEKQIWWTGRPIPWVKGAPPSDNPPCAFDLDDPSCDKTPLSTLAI


Assays:
Assay in all cases: ELISA
hNPR3 = molecular target: T1, hNPR3
hNPR2 = molecular target: T2, hNPR2
hNPR1 antigen = hNPR1 antigen (human)
Sequence of hNPR1 antigen (human) (chain, as listed by the source): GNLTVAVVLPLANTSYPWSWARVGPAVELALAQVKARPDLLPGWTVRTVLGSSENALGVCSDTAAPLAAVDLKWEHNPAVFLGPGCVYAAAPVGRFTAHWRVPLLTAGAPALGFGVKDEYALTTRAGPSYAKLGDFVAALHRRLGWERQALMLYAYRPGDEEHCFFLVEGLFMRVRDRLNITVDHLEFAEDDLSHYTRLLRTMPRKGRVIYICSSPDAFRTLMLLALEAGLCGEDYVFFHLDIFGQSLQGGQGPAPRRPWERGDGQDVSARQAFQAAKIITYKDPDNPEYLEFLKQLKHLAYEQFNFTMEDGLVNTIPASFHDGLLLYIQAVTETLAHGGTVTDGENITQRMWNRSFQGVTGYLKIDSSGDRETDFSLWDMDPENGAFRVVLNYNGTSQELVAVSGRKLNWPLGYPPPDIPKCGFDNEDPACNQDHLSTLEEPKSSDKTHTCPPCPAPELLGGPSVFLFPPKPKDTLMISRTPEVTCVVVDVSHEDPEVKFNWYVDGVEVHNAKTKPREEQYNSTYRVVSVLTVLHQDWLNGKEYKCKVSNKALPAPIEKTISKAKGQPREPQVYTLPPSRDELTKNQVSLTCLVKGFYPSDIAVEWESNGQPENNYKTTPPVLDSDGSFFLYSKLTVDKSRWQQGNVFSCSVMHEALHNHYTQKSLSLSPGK

Binder	binding result (hNPR3)	binding result (hNPR2)	binding result (hNPR1 antigen)
Hu135H3L1 (antibody, V domains shown) VH: DVKLVESGEGLVKPGGSLRLSCAASGFSISTYGMSWVRQAPGKRLEWVAYINSGGNYIYYADSVKGRFTISRDNAKNSLYLQMNSLRAEDTAVYYCTRDRTTIVVHWYFDVWGQGTTVTVSS VL: DIQLTQSPSSLSASVGDRVTITCSASSSLNFMHWYQQKPGKSPKRWIYDTSKLASGVPSRFSGSGSGTDYTLTISSLQPEDFATYYCHQRSSTFGGGTKVEIK	no binding	no binding	
Hu128H3L1-6 (antibody, V domains shown) VH: EVQLVQSGAEVKKPGASVKVSCKASGYTFTSYWMHWVRQAPGQGLEWMGRIDPNSGVTKYNEKFKSRVTLTVDKPSSPAYMELSSLRSEDTAVYYCARSSYLGRYFDVWGQGTTVTVSS VL: EIVLTQSPATLSLSPGERATLKCSATSSVSYMYWYQQKPGQAPRLLIYDTYNLGSRIPARFSGSGSGTDYTLTISRLEPEDFAVYYCQQWSSYPPTFGQGTKLEIK	no binding	no binding	
Hu102H4L6 (antibody, V domains shown) VH: DVKLVESGEGLVKPGGSLRLSCAASGFTFSSYAMSWVRQAPGKRLEWVAYISRGGDYIYYADSVKGRFTISRDNAKNSLYLQMNSLRAEDSAVYYCTRDQTTVVVHWYFDVWGQGTTVTVSS VL: DIQLTQSPSSLSASVGDRVTITCSASSSINYMHWYQQKPGKSPKRWIYDTSKLASGVPSRFSGSGSGTDYTLTISSLQPEDFATYYCHQRNSYTFGGGTKVEIK	no binding	no binding	
RC25 V (antibody, V domains shown) VH: QVQLVQSGAEVKKPGASVKVSCKASGYTFTNSWIGWFRQAPGQGLEWIGDIYPGGGYTNYNEIFKGKATMTADTSTNTAYMELSSLRSEDTAVYYCSRGIPGYAMDYWGQGTLVTVSS VL: DIQMTQSPSSLSASVGDRVTMSCKSSQSLLNSGDQKNYLTWYQQKPGKAPKLLIYWASTGESGVPSRFSGSGSGTDFTFTISSLQPEDIATYYCQNDYSYPWTFGQGTKVEIKR	no binding	no binding	no binding
Hu140H5L5-11 (antibody, V domains shown) VH: QVQLVQSGAEVKKPGASVKVSCKASGYTFTSYWMHWVRQAPGQGLEWMGRIDPNSGVTKYNEKFKSRVTLTVDKPSSPAYMELSSLRSEDTAVYYCARSGGLRRYFDVWGQGTTVTVSS VL: EIVLTQSPATLSLSPGERAQLSCSASSSVSYMYWYQQKPGQAPRLLIYDTYNLASGVPDRFSGSGSGTSYTLTISRLEPEDFAVYYCQQWSSYPPTFGAGTKLEIK	no binding	no binding	
